The DeepSol protein solubility set

Assay: soluble on expression in E. coli; label from the status in PepcDB or PDB records

Row | Sequence | soluble on expression in E. coli
1 | TEFGSELKSFPEVVGKTVDQAREYFTLHYPQYNVYFLPEGSPVTRDLRYNRVRVFYNPGTNVVNHVPHVG | soluble
2 | TELTLKPGTLTLAQLRAIHAAPVRLQLDASAAPAIDASVACVEQIIAEDRTAYGINTGFGLLASTRIASHDLENLQRSLVLSHAAGIGAPLDDDLVRLIMVLKINSLSRGFSGIRRKVIDALIALVNAEVYPHIPLKGSVGASGDLAPLAHMSLVLLGEGKARYKGQWLSATEALAVAGLEPLTLAAKEGLALLNGTQASTAYALRGLFYAEDLYAAAIACGGLSVEAVLGSRSPFDARIHEARGQRGQIDTAACFRDLLGDSSEVSLSHKNADKVQDPYSLRCQPQVMGACLTQLRQAAEVLGIEANAVSDNPLVFAAEGDVISGGNFHAEPVAMAADNLALAIAEIGSLSERRISLMMDKHMSQLPPFLVENGGVNSGFMIAQVTAAALASENKALSHPHSVDSLPTSANQEDHVSMAPAAGKRLWEMAENTRGVLAIEWLGACQGLDLRKGLKTSAKLEKARQALRSEVAHYDRDRFFAPDIEKAVELLAKGSLTGLLPAGVLPSL | soluble
3 | TEPTIHKGLAGVTADVTAISKVNSDTNSLLYRGYPVQELAAKCSFEQVAYLLWNSELPNDSELKAFVNFERSHRKLDENVKGAIDLLSTACHPMDVARTAVSVLGANHARAQDSSPEANLEKAMSLLATFPSVVAYDQRRRRGEELIEPREDLDYSANFLWMTFGEEAAPEVVEAFNVSMILYAEHSFNASTFTARVITSTLADLHSAVTGAIGALKGPLHGGANEAVMHTFEEIGIRKDESLDEAATRSKAWMVDALAQKKKVMGFGHRVYKNGDSRVPTMKSALDAMIKHYDRPEMLGLYNGLEAAMEEAKQIKPNLDYPAGPTYNLMGFDTEMFTPLFIAARITGWTAHIMEQVADNALIRPLSEYNGPEQRQVP | soluble
4 | TETRLLQARVSDLQRLSSLGRMVASLAHQVRTPLSSAMLYASNLGAPNLPPATRERFQSKLMDRLHDLEKQVNDMLLFAKGGDNKVIKPFTIAQLVAEYQPMVETALKNNNIDYFLEVEEEQTE | not soluble
5 | TFGKDNIKSKVILFSIEKPSKEVAEKLEMQDDYIYRIIRMREVGHKAYSIEHTYMPLAIIPGLEPHHLEDSIYNYIRDDLKLKMQSAHVWVRGDKSNQEDSKLLDLEEPTFMMEIEKLAHLEDGRVFEYSITRHTYESFV | not soluble
6 | TFGPVFEDQPLSVLFPEESTEEQVLLACRARASPPATYRWKMNGTEMKLEPGSRHQLVGGNLVIMNPTKAQDAGVYQCLASNPVGTVVSREAILRFGFLQEFSKEERDPVKAHEGWGVMLPCNPPAHYPGLSYRWLLNEFPNFIPTDGRHFVSQTTGNLYIARTNASDLGNYSCLATSHMDFSTKSVFSKFAQLNLAAEDTRLFAPSIKARFPAETYALVGQQVTLECFAFGNPVPRIKWRKVDGSLSPQWTTAEPTLQIPSVSFEDEGTYECEAENSKGRDTVQGRIIVQAQPEWLKVISDTEADIGSNLRWGCAAAGKPRPTVRWLRNGEPLASQNRVEVLAGDLRFSKLSLEDSGMYQCVAENKHGTIYASAELAVQA | soluble
7 | TGALMASSPQDIKFQDLVVFILEKKMGTTRRALLMELARRKGFRVENELSDSVTHIVAENNSGSDVLEWLQAQKVQVSSQPELLDVSWLIECIGAGKPVEMTGKHQL | soluble
8 | THGAQHANPVVSGSVSPRPAPAKEQPSVAPSQSSVPPQPSIGEQRRQPETTAPTITEDKPEQTKVVPPTRPMATSTVGSEGRFTLRGIRNKQEQLQNNIQEVRTEMTESFDEEQLQLAWIEFAETKLSEEIHLKETMANCLPKLRPGTSAFEVEVLNSRQEEEINNVSARLLSFLADKLCNTTIRMNVRVSESTSLNRVPVSLDEKIERLNQENPLFDELRMRLGLSLV | not soluble
9 | TITNILLVGVGGQGILLASEILSEAFMLAGFDVKKSEIHGMSQRGGSVVSHVRYGKEVHSPIVPEGEGDILFGFELMETYRYLPLLRKGGTVVANDLRISPPSVLLGQASYPDDLPDRIRALFPDFLLVDGQHLAAEAGNVRAANTVLLGAVAKQLDIPDECWHKALERMVPPKALDVNRKAFQLGRAL | not soluble
10 | TKDWDWNIEINLGHNKNKLKKLYKTKNAEGQFVEKPIIISDGTSIAGTAKRVLQPGYPCDTYYLKEWAGVNPENGAPQWYKTVENEDGTLSRQKTSNYSEADQVKCGSSSPDIFGGFSTVLRWKDIDLNAVFGYSVGGQIYNYSRQEYDSDGAYNDRNQMKLQKGWNRWEKPGDIATHPVASYSNTSKSNSSSSRYLEKNDYLKLRSLSIGYNLKLPQYYINNMRIFFTGENLFCVTNYSGVDPEIPASDGSVIGTALPSVYPTVRKFMFGLNLTF | not soluble
11 | TLNIVITGAKGFVGKNLKADLTSTTDHHIFEVHRQTKEEELESALLKADFVVHLAGVNRPEHDKEFSLGNVSYLDHVLDILTRNTKKPAILLSSSIQATQDNPYGESKLQGEQLLREYAEEYGNTVYIYRWPNLFGKWCKPNYNSVIATFCYKIARNEEIQVNDRNVELTLNYVDDIVAEIKRAIEGTPTIENGVPTVPNVFKVTLGEIVDLLYKFKQSRLDRTLPKLDNLFEKDLYSTYLSYLPSTDFSYPLLMNVDDRGSFTEFIKTPDRGQVSVNISKPGITKGNHWHHTKNEKFLVVSGKGVIRFRHVNDDEIIEYYVSGDKLEVVDIPVGYTHNIENLGDTDMVTIMWVNEMFDPNQPDTYFLEV | soluble
12 | TLQIQFKKYELPPLPYKIDALEPYISKDIIDVHYNGHHKGYVNGANSLLERLEKVVKGDLQTGQYDIQGIIRGLTFNINGHKLHALYWENMAPSGKGGGKPGGALADLINKQYGSFDRFKQVFTETANSLPGTGWAVLYYDTESGNLQIMTFENHFQNHIAEIPIILILDEFEHAYYLQYKNKRADYVNAWWNVVNWDAAEKKLQKYLTK | soluble
13 | TLTTTPNQLTDGLEKSLRPLNKIHVPVHEIAMMMSIALRFIPILLEETDKIMKAQIARGADFENGNLIQKVKNMVPLLVPLFISAFRRANDLAMAMEARCYHGGDNRTQMKPLKYKKRD | not soluble
14 | TMEEELEPVVRHLVEQRWPFRLHATYNESITRMLDVFEKVNRDIPFNGLPWFFDHAETITPQNIERVRALGGGIAIQDRMAFQGEYFVDRYGAKAAEQTPPIKRMLEMGVPVGAGTDATRVSSYNPWTSLYWLVSGKTVGGMELYPEGLSRDTALQLFTQGSAWFSSEQGKKGQIKVGQLADLAALSLDFFSVDEEAIKGIESVLTIVDGKVVYGAGEFDKFGPPQVPVLPEWSPVTKVPGHWRVGTPSLAAAVHQCSGPCGVHAHSHEKARHSSVPVNDFQGFWGALGCSCFA | not soluble
15 | TNCVTISQREILKGVEGVTWFEVLLEKTSCITIAAQNRPSIDLWLDDVKQSSVMASKEFCMKVEVSETQIAARCPTQGDATLPMEGKDDYVCKKTFSDRGWGNGCALFGKGSIVGCAKVACNTANVMKTHIYEQQAVQYVVGIEVHRGEVIKANVSDKVIKASFSAEAEKHTVEIPDYGSLDFTCRVVASADLSNIRLLEVDGHYFNVHEDWLDDLPLPWRINAGPWRGMDKLVNFREPYAVKMVIMGYGDQRPAVLGALDKAEEIKKVGDNYHLNGGHVSCKVSVAKLKLKGMTYVVCGGKFAWAKKPIATNHDTVAMEVTYTGNDTPCRVTVKNVKENSDDQGTLITTNPFVESNGATIFLELEPVYGLSTIKVGDITYQWNQQGSVIGKALEHHHHHH | not soluble
16 | TNTDQSIKFTSKSNSINKNNQNKELALLRDNLMNEAKVDEPLSFEKRFENFKNKYSDIHSLNNSVFSLHDVYDLLGGFKQSLTTFFDEVIAQQQKIKDADKIFPSTKDNPPKEENPNVLDTLANYQGAGFFPSLGKNGFNLPEAVFQNFTDFRINDYKIKNFNVDLVSENDIIKHDKVRYAFEV | not soluble
17 | TPDWRVSLRGSLAYNRNKVISLYYTDRLYTSETALTPDYEVGKAYNMLYGLKSLGINPITGLPVFQGADGSEISPTQNPARENFIVLGHSTPPYSGTFNLNFSYRNFDLDMDFYYVFGGIKPYNYSYVRSADSANKNAIQKQLENMWFHRGDEGKIYHSPFYISPANASLQQPNTETVGKSDYLKLAMLSLRYRVPHTFLEKNCHFIKYANIAFQASNLFMITPYKESDPETGSLAGAMQPVLTINLSLTF | not soluble
18 | TPGVEKRVIWAPGGYERRTPYALVYLHGFSATSEEIRPVPDHIAQALGANLVFTRLQGHGRGDDAMAQGSASGWMRDTAEALAAGRAVGERVIVIATSTGATLAAAAALDPEMSADVAAMILVSPNFGVNDPLAFVPTLPGARYWLPRLMGDARDVTGPDADKNTYWTTRYSWSALVPMSVLVQAVVSLDFAQARVPALFWFSDQDRVVRADLTRALAGRWGGPVRVEAVTMGPGDDPSSHVIAGDIMSPGQTDIAVAGMLAWLREQGI | not soluble
19 | TPPPTQWSYLCHPRVKEVQDEVDGYFLENWKFPSFKAVRTFLDAKFSEVTCLYFPLALDDRIHFACRLLTVLFLIDDVLEHMSFADGEAYNNRLIPISRGDVLPDRTKPEEFILYDLWESMRAHDAELANEVLEPTFVFMRAQTDRARLSIHELGHYLEYREKDVGKALLSALMRFSMGLRLSADELQDMKALEANCAKQLSVVNDIYSYDKEEEASRTGHKEGAFLCSAVKVLAEESKLGIPATKRVLWSMTREWETVHDEIVAEKIASPDGCSEAAKAYMKGLEYQMSGNEQWSKTTR | soluble
20 | TPQYESTTKMYVLSKQDNNTLTQQDMQTSLSLTKDYAELIKSRTVTEGVIAQLNLDLTHEELLKKMTVDSATDTRILSITVTDADPYEACKIANAIRDVAANHIKNVMDIDAVNVVETANIPDQQSSPSISKN | not soluble
21 | TQGERRQAEQLAVQTARTISYMPPVKELIERKDGHAAQTQEVIEQMKEQTGAFAIYVLNEKGDIRSASGKSGLKKLERSREILFGGSHVSETKADGRRVIRGSAPIIKEQKGYSQVIGSVSVDFLQT | not soluble
22 | TQVFDLEGYGAISRAMGGTSSSYYTGNAALISNPATLSFAPDGNQFELGLDVVTTDIKVHDSHGAEAKSSTRSNNRGPYVGPQLSYVAQLDDWRFGAGLFVSSGLGTEYGSKSFLSQTENGIQTSFDNSSRLIVLRAPIGFSYQATSKLTFGASVDLVWTSLNLELLLPSSQVGALTAQGNLSGGLVPSLAGFVGTGGAAHFSLSRNSTAGGAVDAVGWGGRLGLTYKLTDNTVLGAMYNFKTSVGDLEGKATLSAISGDGAVLPLDGDIRVKNFEMPASLTLGLAHQFNERWVVAADIKRAYWGDVMDSMNVAFISQLGGIDVALPHRYQDITVASIGTAYKYNNDLTLRAGYSYAQQALDSELILPVIPAYLKRHVTFGGEYDFDKDSRINLAISFGLRERVQTPSYLAGTEMLRQSHSQINAVVSYSKNFHHHHHH | soluble
23 | TTFTTRDGTQIYYKDWGSGQPIVFSHGWPLNADSWESQMIFLAAQGYRVIAHDRRGHGRSSQPWSGNDMDTYADDLAQLIEHLDLRDAVLFGFSTGGGEVARYIGRHGTARVAKAGLISAVPPLMLKTEANPGGLPMEVFDGIRQASLADRSQLYKDLASGPFFGFNQPGAKSSAGMVDWFWLQGMAAGHKNAYDCIKAFSETDFTEDLKKIDVPTLVVHGDADQVVPIEASGIASAALVKGSTLKIYSGAPHGLTDTHKDQLNADLLAFIKG | soluble
24 | TTHKFEHPLNEKTRIYLRVESLLRQAHLASGFADNHQYQLFFRALFDMVEIFEQIQLKSELAKDLEKQRLSYRHWLNVEGVDQEALNSLLNEIDVVHSQLMGAERFGQALKEDRFLSSIRQRFNLPGGSCCFDLPALHYWLHLPIERKKHDANQWQKSLKPLSDALTLWLKLARETGHFKAQIARAGFFQSDADEANILRLHIPMKYGVYPMISGHKNRFAIKFMAFENGQACSQDVEFELAVC | soluble
